Paper PMC7031079, “ATBS1-INTERACTING FACTOR 2 negatively regulates dark- and brassinosteroid-induced leaf senescence through interactions with INDUCER OF CBF EXPRESSION 1” (Journal of Experimental Botany, 2019)

Biological target: T1, ICE1FL-myc (Arabidopsis thaliana, UniProt Q9LSE2 1-494)
T1 sequence (looked up): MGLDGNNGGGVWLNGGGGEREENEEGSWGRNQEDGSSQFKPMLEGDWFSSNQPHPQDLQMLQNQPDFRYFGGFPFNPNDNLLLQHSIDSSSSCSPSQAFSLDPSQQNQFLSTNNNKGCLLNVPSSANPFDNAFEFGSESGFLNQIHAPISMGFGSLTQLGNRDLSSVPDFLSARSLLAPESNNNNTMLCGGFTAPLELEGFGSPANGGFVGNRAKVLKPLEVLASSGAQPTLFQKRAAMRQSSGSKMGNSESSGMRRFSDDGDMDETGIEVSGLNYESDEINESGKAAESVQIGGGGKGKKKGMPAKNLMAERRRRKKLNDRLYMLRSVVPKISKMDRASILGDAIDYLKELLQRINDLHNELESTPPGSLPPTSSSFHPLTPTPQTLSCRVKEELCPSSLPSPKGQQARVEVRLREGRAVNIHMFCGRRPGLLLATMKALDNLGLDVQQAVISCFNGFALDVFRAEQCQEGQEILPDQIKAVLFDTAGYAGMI
Test: cell-based or functional assay

pCBF2::Luc reporter expression in tobacco leaves on co-expression of full-length AIF2 (p35S::AIF2FL-EGFP) and ICE1 (p35S::ICE1FL-EGFP), against the non-transformed mock control: ~5 fold
B1: AIF2FL-nYFP (natural protein, Arabidopsis thaliana, UniProt Q9C8Z9 1-221, looked up)
chain: MASLISDIEPPTSTTSDLVRRKKRSSASSAASSRSSASSVSGEIHARWRSEKQQRIYSAKLFQALQQVRLNSSASTSSSPTAQKRGKAVREAADRALAVSARGRTLWSRAILANRIKLKFRKQRRPRATMAIPAMTTVVSSSSNRSRKRRVSVLRLNKKSIPDVNRKVRVLGRLVPGCGKQSVPVILEEATDYIQALEMQVRAMNSLVQLLSSYGSAPPPI
